Experimental findings from paper doi:10.1101/2024.02.19.580884 (bioRxiv, 2024) are described below.

What all share (test): pull-down
Assay [1] concerns the target T1, 6xHis-AccC (Bacillus subtilis 168, UniProt P49787 1-450).
T1 sequence (looked up): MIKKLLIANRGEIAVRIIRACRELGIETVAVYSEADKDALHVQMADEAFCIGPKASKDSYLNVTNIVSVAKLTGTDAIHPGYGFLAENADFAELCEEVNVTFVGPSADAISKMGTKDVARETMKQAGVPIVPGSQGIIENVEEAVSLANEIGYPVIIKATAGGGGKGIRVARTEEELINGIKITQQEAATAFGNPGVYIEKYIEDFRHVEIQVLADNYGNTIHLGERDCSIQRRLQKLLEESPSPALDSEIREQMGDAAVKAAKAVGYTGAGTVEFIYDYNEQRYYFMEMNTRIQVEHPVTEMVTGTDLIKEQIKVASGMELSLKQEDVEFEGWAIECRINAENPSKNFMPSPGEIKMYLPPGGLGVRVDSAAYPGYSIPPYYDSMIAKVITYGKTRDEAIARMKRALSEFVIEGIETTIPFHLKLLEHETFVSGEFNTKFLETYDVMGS

Assay [2] addresses T2, Strep-tagged AccC (Bacillus subtilis 168, UniProt P49787 1-450).
T2 sequence (looked up): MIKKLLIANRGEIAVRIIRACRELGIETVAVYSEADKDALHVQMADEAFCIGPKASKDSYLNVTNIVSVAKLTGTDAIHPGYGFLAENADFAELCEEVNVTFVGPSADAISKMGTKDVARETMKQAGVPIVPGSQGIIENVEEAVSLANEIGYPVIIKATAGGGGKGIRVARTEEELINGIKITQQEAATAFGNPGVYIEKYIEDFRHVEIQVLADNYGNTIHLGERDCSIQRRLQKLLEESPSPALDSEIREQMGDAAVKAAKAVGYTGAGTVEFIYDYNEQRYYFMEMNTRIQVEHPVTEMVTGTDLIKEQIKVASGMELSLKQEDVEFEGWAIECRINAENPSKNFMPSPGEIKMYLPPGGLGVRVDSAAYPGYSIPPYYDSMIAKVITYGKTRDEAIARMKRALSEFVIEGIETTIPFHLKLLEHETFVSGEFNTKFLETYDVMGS

The target in assay [3] is T3, Strep-tagged AccB (Bacillus subtilis 168, UniProt P49786 1-159).
T3 sequence (looked up): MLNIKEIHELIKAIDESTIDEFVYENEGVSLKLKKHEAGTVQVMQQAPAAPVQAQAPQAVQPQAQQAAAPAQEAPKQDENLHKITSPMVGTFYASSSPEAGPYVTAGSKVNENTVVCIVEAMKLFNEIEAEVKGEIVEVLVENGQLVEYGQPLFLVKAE

B1: GST-tagged RfaA (natural protein, Bacillus subtilis 168, UniProt P54519 1-135, looked up)
chain: MKDNSLLKMDHEDTHLGKVEIAPEVIEVIAGIAASEVDGVAEMRGNFATGVVERFGKVNHGKGVKVDLADDGITIDVYCVVTFGVSIPKVAASVQENIRQTLLNMTSLSINEINIHIVGIQFDTKAQEVQIDEEM
On to B1, for which, in assay [1], the binding result was “binds”.

B2: 6xHis-SUMO-RfaA (natural protein, Bacillus subtilis 168, UniProt P54519 1-135, looked up)
chain: MKDNSLLKMDHEDTHLGKVEIAPEVIEVIAGIAASEVDGVAEMRGNFATGVVERFGKVNHGKGVKVDLADDGITIDVYCVVTFGVSIPKVAASVQENIRQTLLNMTSLSINEINIHIVGIQFDTKAQEVQIDEEM
In the case of B2, the binding result in assay [2] and in assay [3] was “binds” each time.
